Test results: patent US9644034B2, “Anti-RSPO2 antibodies and uses thereof” (OncoMed Pharmaceuticals, Inc., priority 2011, dated 2017)

Key:
[1] = system: PN31 pancreatic tumor cells; experiment: PN31 pancreatic tumor xenograft growth in NOD/SCID mice; assay type: in vivo; conditions: antibodies 15 mg/kg once a week, intraperitoneal
Procedure: Dissociated PN31 pancreatic tumor cells (1×10^5cells) were injected subcutaneously into the flanks of 6-8 week old NOD/SCID mice. Tumors were allowed to grow for 61 days until they reached an average volume of 120 mm^3. The mice were randomized (n=10 per group) and treated with anti-RSPO1 antibody 89M5, anti-RSPO2 antibody 130M23, gemcitabine, a combination of 89M5 and gemcitabine, a combination of 130M23 and gemcitabine, or control antibody 1B7.11. Antibodies were dosed at 15 mg/kg once a week, and gemcitabine was dosed at […] once a week. Administration of the antibodies and gemcitabine was performed via injection into the intraperitoneal cavity. Tumor growth was monitored and tumor volumes were measured with electronic calipers at specific time points. Data are expressed as mean±S.E.M.

[2] = system: PN7 pancreatic tumor cells; experiment: PN7 pancreatic tumor xenograft growth in NOD/SCID mice; assay type: in vivo
Procedure: Dissociated PN7 pancreatic tumor cells (1×10^5cells) were injected subcutaneously into the flanks of 6-8 week old NOD/SCID mice. Tumors were allowed to grow for 25 days until they reached an average volume of 130 mm^3. The mice were randomized (n=10 per group) and treated with anti-RSPO2 antibody 130M23, anti-FZD antibody 18R5, gemcitabine, a combination of 130M23 and gemcitabine, a combination of 18R5 and gemcitabine, a combination of 130M23 and 18R5, a combination of 130M23, 18R5 and gemcitabine, or control antibody 1B7.11. Anti-RSPO2 antibody 130M23 was dosed at 10 mg/kg once a week, anti-FZD antibody 18R5 was dosed at 20 mg/kg once a week, and gemcitabine was dosed at […] once a week. Administration of the antibodies and gemcitabine was performed via injection into the intraperitoneal cavity. Tumor growth was monitored and tumor volumes were measured with electronic calipers at specific time points. Data are expressed as mean±S.E.M. A parallel set of experiments included mice treated with a FZD8-Fc soluble receptor (10 mg/kg) in combination with gemcitabine and FZD8-Fc in combination with 130M23 and gemcitabine.

human RSPO2 [3] = target: T1, human RSPO2 (Homo sapiens, UniProt Q6UXX9); experiment: FACS binding of 130M23 and humanized 130M23 to HEK293 cells expressing FLAG-RSPO2furin-CD4TM-GFP; conditions: five-fold serial dilutions
T1 construct: followed by the furin-like domains of RSPO2 (aa 31-146); expressed in transfected cells; host or cells: HEK-293
T1 sequence (Q6UXX9 31-146): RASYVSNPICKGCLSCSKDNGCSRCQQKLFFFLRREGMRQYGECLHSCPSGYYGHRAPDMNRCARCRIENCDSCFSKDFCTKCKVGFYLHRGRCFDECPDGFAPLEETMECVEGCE
Procedure: HEK293 cells were transiently transfected with an expression vector encoding FLAG-RSPO2furin-CD4TM-GFP. As described in Example 11, FLAG-RSPO2furin-CD4TM-GFP is a chimeric fusion protein enabling cell surface expression of the N-terminal furin-like domains of human RSPO2. FLAG-RSPO2furin-CD4TM-GFP transfected cells were incubated in the presence of anti-RSPO2 antibody 130M23 or humanized anti-RSPO2 antibody […]. Five-fold serial dilutions of each antibody were examined for their ability to bind to the RSPO2 expressing cells. The cells were stained with Phycoerythrin conjugated anti-IgG to reveal bound antibody. The cells were analyzed on a FACSCalibur instrument (BD Biosciences, San Jose, Calif.) and the data was processed using FlowJo software.

human RSPO2 [4] = target: T1, human RSPO2; experiment: FACS screening of hybridoma supernatants on HEK-293 cells expressing FLAG-RSPO2furin-CD4TM-GFP; assay type: binding
Source text: Antibodies were generated against recombinant human RSPO2 protein amino acids 22-205 (R&D Systems, Minneapolis, Minn.). Mice (n=3) were immunized with RSPO2 protein using standard techniques. Sera from individual mice were screened against RSPO2 approximately 70 days after initial immunization using FACS analysis. The animal with the highest antibody titer was selected for final antigen boost after which spleen cells were isolated for hybridoma production. SP2/0 cells were used as fusion partners for the mouse spleen cells. Hybridoma cells were plated at 1 cell per well in 96 well plates, and the supernatants were screened against human RSPO2 by FACS analysis.
As described in Example 5, for FACS screening of anti-RSPO2 antibodies a chimeric fusion protein enabling cell surface expression of the N-terminal furin-like domains of human RSPO2 was constructed. Similar to what is depicted in FIG. 5A for RSPO1, the RSPO2 fusion protein contains a N-terminal FLAG tag, followed by the furin-like domains of RSPO2 (aa 31-146) and fused to the transmembrane and intracellular domain of human CD4 and a C-terminal green fluorescent protein tag (FLAG-RSPO2furin-CD4TM-GFP).
HEK-293 cells were transfected with FLAG-RSPO2furin-CD4TM-GFP. […] The cells were analyzed on a FACSCalibur instrument (BD Biosciences, San Jose, Calif.) and the data was processed using FlowJo software.

[5] = system: β-catenin signaling induced by RSPO3; experiment: TOPflash luciferase assay in HEK-293 cells, Wnt3a plus human RSPO3; assay type: cell-based; conditions: Wnt3a 5 ng/ml, RSPO3 10 ng/ml
Procedure: (§1) HEK-293 cells were transfected with a 6×TCF-luciferase reporter vector (TOPflash, Millipore, Billerica, Mass.). After 24-48 hrs, the transfected HEK-293 cells were incubated with a combination of Wnt3a (5 ng/ml) and human RSPO2 (10 ng/ml, R&D BioSystems) or human RSPO3 (10 ng/ml, R&D BioSystems) in the presence of anti-RSPO2 antibodies 130M23, 130M24, 130M25, 130M26, 130M27, and 130M28. Cells were incubated with a combination of Wnt3a and RSPO, Wnt3a only or with no addition as controls. The cells were incubated for 16 hours and luciferase activity was measured using Steady-Glo® Luciferase Assay System according to the manufacturer's instructions (Promega, Madison, Wis.).

binding of RSPO2 to LGR5 = target: T2, binding of RSPO2 to LGR5 (Homo sapiens, UniProt Q6UXX9); experiment: FACS: blocking of soluble RSPO2-Fc binding to LGR5 on HEK-293 cells; conditions: RSPO2-Fc 10 μg/ml
T2 construct: full-length human RSPO1, RSPO2, RSPO3 and RSPO4 were ligated in-frame to a human Fc region; made in house; host or cells: RSPO2-Fc: insect cells (baculovirus); LGR5 construct: transiently transfected HEK-293
T2 sequence (Q6UXX9 22-243 L186P): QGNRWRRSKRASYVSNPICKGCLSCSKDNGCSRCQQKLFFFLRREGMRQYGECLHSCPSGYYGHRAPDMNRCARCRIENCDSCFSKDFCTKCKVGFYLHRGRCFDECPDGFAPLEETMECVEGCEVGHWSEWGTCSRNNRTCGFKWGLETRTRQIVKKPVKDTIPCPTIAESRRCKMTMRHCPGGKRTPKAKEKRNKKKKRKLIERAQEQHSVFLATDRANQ
Procedure: HEK-293 cells were transiently transfected with the FLAG-LGR5-CD4TM-GFP construct (previously described in Example 2). After 48 hours, transfected cells were suspended in ice cold PBS containing 2% FBS and heparin and incubated on ice in the presence of RSPO2-Fc protein (10 μg/ml) and antibodies 130M23, 130M24, 130M25, 130M26, 130M27, and 130M28. A second incubation with 100 μl PE-conjugated anti-human Fc secondary antibody was performed to detect cells bound by the RSPO2-Fc fusion protein. The cells were analyzed on a FACSCalibur instrument (BD Biosciences, San Jose, Calif.) and the data was processed using FlowJo software.

β-catenin signaling = experiment: Luciferase assay in STF-293 cells with LU2 cells, lung tumor cell-conditioned medium and Wnt3a-L cell-conditioned medium; assay type: cell-based, human
Procedure: Conditioned medium from human lung tumor LU2 cells was prepared as described in Example 3 and soluble LGR5-Fc was produced as described in Example 2.
STF-293 cells were incubated with LU2 cells plus 25% lung tumor cell-conditioned medium plus 25% Wnt3a-L cell-conditioned medium. Antibody 130M23 and soluble LGR5-Fc were added to the cells in 5-fold serially dilutions from 50 μg/ml to 0.0006 μg/ml. An irrelevant monoclonal antibody, similarly diluted, and a control Fc fusion protein (50 ug/ml) were used as negative controls. The cells were incubated for 20 hours and luciferase activity was measured using Steady-Glo® Luciferase Assay System according to the manufacturer's instructions (Promega, Madison, Wis.).

PN7 tumors = experiment: Serial transplantation of cells from treated PN7 tumors (tumorigenicity); assay type: in vivo, NOD-SCID mice; conditions: 90 cells injected, 40 days growth with no treatment; vs control antibody
Procedure: The PN7 tumors described above were processed to yield single cell suspensions. Mouse cells were depleted from the cell mixtures using biotinylated anti-H2K^d and anti-CD45 antibodies and streptavidin-conjugated magnetic beads. The remaining human tumor cells were serially transplanted into a new cohort of mice. 90 tumor cells from each treatment group were injected into the flanks of NOD-SCID mice (n=10 mice per group). Tumors were allowed to grow for 40 days with no treatment and tumor volumes were measured with electronic calipers.

[6] = system: RSPO2-induced β-catenin signaling; experiment: TOPflash luciferase assay in HEK-293 cells, Wnt3a plus human RSPO2; assay type: cell-based; conditions: Wnt3a 5 ng/ml, RSPO2 10 ng/ml
Procedure: as §1

B1: 130M23: anti-RSPO2 monoclonal antibody, hybridoma ATCC PTA-12021; variable regions SEQ ID NO:27 and SEQ ID NO:28 (antibody, V domains shown)
VH: EVKLVESGGGLVKPGGSLKFSCAASGFSFSSYAMSWVRQTPEKRLEWVASISSGGSTYYPDSVKGRFTISRDNVRNILYLQMSSLRSEDTAMYFCARGGDPGVYNGDYEDAMDYWGQGTSVTVSS
VL: DIVMTQSHKFMSTSVGDRVSITCKASQDVSSAVAWYQQKPGQSPKLLIYWASTRHTGVPDRFTNSGSGTDYTLTISSVQAEDLALYYCQQHYSTPWTFGGGTKLEIK
modifications: 130M23 Heavy chain variable region; 130M23 Light chain variable region
effect on tumor growth as single agents [1]: only a minimal effect
proliferation (anti-Ki67 antibody IHC) ([2]; PN7 tumors of treated mice): significant decrease in proliferation
morphology of PN7 tumors (IHC) ([2]; treated vs untreated mice): induced morphological changes
reduction in tumor growth ([2]; vs control antibody, 130M23 10 mg/kg, 18R5 20 mg/kg, gemcitabine once a week, intraperitoneal): approximately 55%
binding to human RSPO2 (FACS) (human RSPO2 [3]): bind
binding to RSPO2 (FACS) (human RSPO2 [4]): bound
blocking of β-catenin signaling induced by RSPO3 [5]: did not block
blocking of binding of RSPO2 to LGR5 (binding of RSPO2 to LGR5): blocked
induction of luciferase activity by lung tumor cell-conditioned medium and Wnt3a-conditioned medium (β-catenin signaling; increasing concentrations, 50 to 0.0006 μg/ml): reduced
potency relative to LGR5-Fc (β-catenin signaling; more potent than LGR5-Fc): greater than 100 fold
tumorigenicity of cells isolated from treated mice (PN7 tumors): greatly decreased tumorigenicity
effect on RSPO2-induced β-catenin signaling [6]: completely blocked
